This is an account of results in paper PMC10786891, “Massively parallel profiling of RNA-targeting CRISPR-Cas13d”.

The labels stand for the following.
T1: EsCas13d, nuclease-dead (Eubacterium siraeum, UniProt B0MS50, R295A;H300A;R849A;H854A)
T1 sequence: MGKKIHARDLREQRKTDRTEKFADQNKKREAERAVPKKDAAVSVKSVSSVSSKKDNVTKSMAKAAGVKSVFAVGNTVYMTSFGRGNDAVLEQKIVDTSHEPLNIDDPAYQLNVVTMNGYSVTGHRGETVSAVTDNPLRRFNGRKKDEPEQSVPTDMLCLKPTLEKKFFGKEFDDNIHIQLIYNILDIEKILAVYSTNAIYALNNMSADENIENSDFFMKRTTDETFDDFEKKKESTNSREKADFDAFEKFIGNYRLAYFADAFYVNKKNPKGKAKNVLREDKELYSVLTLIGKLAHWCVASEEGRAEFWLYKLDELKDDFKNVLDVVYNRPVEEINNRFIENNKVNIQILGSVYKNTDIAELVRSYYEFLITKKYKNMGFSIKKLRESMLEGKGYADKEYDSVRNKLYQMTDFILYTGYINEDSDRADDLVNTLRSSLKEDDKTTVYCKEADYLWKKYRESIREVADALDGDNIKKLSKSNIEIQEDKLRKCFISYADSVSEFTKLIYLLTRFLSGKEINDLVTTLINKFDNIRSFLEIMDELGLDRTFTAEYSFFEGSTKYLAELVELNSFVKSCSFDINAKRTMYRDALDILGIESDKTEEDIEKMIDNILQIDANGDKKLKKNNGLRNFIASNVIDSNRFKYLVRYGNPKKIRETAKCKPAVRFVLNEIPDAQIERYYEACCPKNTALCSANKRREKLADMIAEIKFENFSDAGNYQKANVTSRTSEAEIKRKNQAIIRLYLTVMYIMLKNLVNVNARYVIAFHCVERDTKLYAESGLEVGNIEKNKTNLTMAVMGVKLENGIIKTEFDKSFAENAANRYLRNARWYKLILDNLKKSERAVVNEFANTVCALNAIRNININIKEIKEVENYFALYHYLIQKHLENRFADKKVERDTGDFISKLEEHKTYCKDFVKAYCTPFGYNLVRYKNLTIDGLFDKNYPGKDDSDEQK

B1: target 1 insG 3' of 20,insA 3' of 13 (mixed)
RNA 1: CACCCGUGCAAAAAUGCAGGGGUCUAAAACUGAGCGGAUAACCUCUCUAUGG
RNA 2: GGGAAUGGAUCCACAUCUACGAAUUCGUACCAGUAGAGAGAGUUAUCCGCUCACCGAGAUCGGAAGAGCACACGU
B2: target 1 insC 3' of 17,insC 3' of 5 (mixed)
RNA 1: CACCCGUGCAAAAAUGCAGGGGUCUAAAACUGAGCGGAUAACCUCUCUAUGG
RNA 2: GGGAAUGGAUCCACAUCUACGAAUUCGUACCAUAGCAGAGGUUAUCCGCCUCACCGAGAUCGGAAGAGCACACGU
B3: target 1 insA 3' of 15,insA 3' of 11 (mixed)
RNA 1: CACCCGUGCAAAAAUGCAGGGGUCUAAAACUGAGCGGAUAACCUCUCUAUGG
RNA 2: GGGAAUGGAUCCACAUCUACGAAUUCGUACCAUAGAGAAGGUAUAUCCGCUCACCGAGAUCGGAAGAGCACACGU
B4: target 1 U8G,U11G (mixed)
RNA 1: CACCCGUGCAAAAAUGCAGGGGUCUAAAACUGAGCGGAUAACCUCUCUAUGG
RNA 2: GGGAAUGGAUCCACAUCUACGAAUUCGUACCAUAGAGAGGGUAGCCGCUCACCGAGAUCGGAAGAGCACACGU
B5: target 1 C4A,G5A (mixed)
RNA 1: CACCCGUGCAAAAAUGCAGGGGUCUAAAACUGAGCGGAUAACCUCUCUAUGG
RNA 2: GGGAAUGGAUCCACAUCUACGAAUUCGUACCAUAGAGAGGUUAUCCAAUCACCGAGAUCGGAAGAGCACACGU
B6: target 1 A14G,U19G (mixed)
RNA 1: CACCCGUGCAAAAAUGCAGGGGUCUAAAACUGAGCGGAUAACCUCUCUAUGG
RNA 2: GGGAAUGGAUCCACAUCUACGAAUUCGUACCAGAGAGGGGUUAUCCGCUCACCGAGAUCGGAAGAGCACACGU
B7: target 1 insU 3' of 9,insA 3' of 8 (mixed)
RNA 1: CACCCGUGCAAAAAUGCAGGGGUCUAAAACUGAGCGGAUAACCUCUCUAUGG
RNA 2: GGGAAUGGAUCCACAUCUACGAAUUCGUACCAUAGAGAGGUUAUUACCGCUCACCGAGAUCGGAAGAGCACACGU
B8: target 1 G15A,U19A (mixed)
RNA 1: CACCCGUGCAAAAAUGCAGGGGUCUAAAACUGAGCGGAUAACCUCUCUAUGG
RNA 2: GGGAAUGGAUCCACAUCUACGAAUUCGUACCAAAGAAAGGUUAUCCGCUCACCGAGAUCGGAAGAGCACACGU
B9: target 1 insU 3' of 18,insC 3' of 13 (mixed)
RNA 1: CACCCGUGCAAAAAUGCAGGGGUCUAAAACUGAGCGGAUAACCUCUCUAUGG
RNA 2: GGGAAUGGAUCCACAUCUACGAAUUCGUACCAUAUGAGAGCGUUAUCCGCUCACCGAGAUCGGAAGAGCACACGU
B10: target 1 U3A,U10C (mixed)
RNA 1: CACCCGUGCAAAAAUGCAGGGGUCUAAAACUGAGCGGAUAACCUCUCUAUGG
RNA 2: GGGAAUGGAUCCACAUCUACGAAUUCGUACCAUAGAGAGGUCAUCCGCACACCGAGAUCGGAAGAGCACACGU
B11: target 1 insC 3' of 13,insU 3' of 9 (mixed)
RNA 1: CACCCGUGCAAAAAUGCAGGGGUCUAAAACUGAGCGGAUAACCUCUCUAUGG
RNA 2: GGGAAUGGAUCCACAUCUACGAAUUCGUACCAUAGAGAGCGUUAUUCCGCUCACCGAGAUCGGAAGAGCACACGU
B12: target 1 insG 3' of 14,insG 3' of 6 (mixed)
RNA 1: CACCCGUGCAAAAAUGCAGGGGUCUAAAACUGAGCGGAUAACCUCUCUAUGG
RNA 2: GGGAAUGGAUCCACAUCUACGAAUUCGUACCAUAGAGAGGGUUAUCCGGCUCACCGAGAUCGGAAGAGCACACGU
B13: target 1 C4A,U11A (mixed)
RNA 1: CACCCGUGCAAAAAUGCAGGGGUCUAAAACUGAGCGGAUAACCUCUCUAUGG
RNA 2: GGGAAUGGAUCCACAUCUACGAAUUCGUACCAUAGAGAGGAUAUCCGAUCACCGAGAUCGGAAGAGCACACGU
B14: target 1 insC 3' of 11,insG 3' of 4 (mixed)
RNA 1: CACCCGUGCAAAAAUGCAGGGGUCUAAAACUGAGCGGAUAACCUCUCUAUGG
RNA 2: GGGAAUGGAUCCACAUCUACGAAUUCGUACCAUAGAGAGGUCUAUCCGCGUCACCGAGAUCGGAAGAGCACACGU
B15: target 1 G5C,C6U (mixed)
RNA 1: CACCCGUGCAAAAAUGCAGGGGUCUAAAACUGAGCGGAUAACCUCUCUAUGG
RNA 2: GGGAAUGGAUCCACAUCUACGAAUUCGUACCAUAGAGAGGUUAUCUCCUCACCGAGAUCGGAAGAGCACACGU
B16: target 1 insG 3' of 7,insG 3' of 3 (mixed)
RNA 1: CACCCGUGCAAAAAUGCAGGGGUCUAAAACUGAGCGGAUAACCUCUCUAUGG
RNA 2: GGGAAUGGAUCCACAUCUACGAAUUCGUACCAUAGAGAGGUUAUCGCGCUGCACCGAGAUCGGAAGAGCACACGU
B17: target 1 insA 3' of 17,insA 3' of 12 (mixed)
RNA 1: CACCCGUGCAAAAAUGCAGGGGUCUAAAACUGAGCGGAUAACCUCUCUAUGG
RNA 2: GGGAAUGGAUCCACAUCUACGAAUUCGUACCAUAGAAGAGGAUUAUCCGCUCACCGAGAUCGGAAGAGCACACGU
B18: target 1 C6U,A9C (mixed)
RNA 1: CACCCGUGCAAAAAUGCAGGGGUCUAAAACUGAGCGGAUAACCUCUCUAUGG
RNA 2: GGGAAUGGAUCCACAUCUACGAAUUCGUACCAUAGAGAGGUUCUCUGCUCACCGAGAUCGGAAGAGCACACGU
B19: target 1 insU 3' of 14,insG 3' of 8 (mixed)
RNA 1: CACCCGUGCAAAAAUGCAGGGGUCUAAAACUGAGCGGAUAACCUCUCUAUGG
RNA 2: GGGAAUGGAUCCACAUCUACGAAUUCGUACCAUAGAGAUGGUUAUGCCGCUCACCGAGAUCGGAAGAGCACACGU
B20: target 1 del7,del19 (mixed)
RNA 1: CACCCGUGCAAAAAUGCAGGGGUCUAAAACUGAGCGGAUAACCUCUCUAUGG
RNA 2: GGGAAUGGAUCCACAUCUACGAAUUCGUACCAAGAGAGGUUAUCGCUCACCGAGAUCGGAAGAGCACACGU
B21: target 1 insC 3' of 22,insC 3' of 3 (mixed)
RNA 1: CACCCGUGCAAAAAUGCAGGGGUCUAAAACUGAGCGGAUAACCUCUCUAUGG
RNA 2: GGGAAUGGAUCCACAUCUACGAAUUCGUACCCAUAGAGAGGUUAUCCGCUCCACCGAGAUCGGAAGAGCACACGU
B22: target 1 C2G,U19G (mixed)
RNA 1: CACCCGUGCAAAAAUGCAGGGGUCUAAAACUGAGCGGAUAACCUCUCUAUGG
RNA 2: GGGAAUGGAUCCACAUCUACGAAUUCGUACCAGAGAGAGGUUAUCCGCUGACCGAGAUCGGAAGAGCACACGU
B23: target 1 A9G,A18C (mixed)
RNA 1: CACCCGUGCAAAAAUGCAGGGGUCUAAAACUGAGCGGAUAACCUCUCUAUGG
RNA 2: GGGAAUGGAUCCACAUCUACGAAUUCGUACCAUCGAGAGGUUGUCCGCUCACCGAGAUCGGAAGAGCACACGU
B24: target 1 insU 3' of 20,insC 3' of 8 (mixed)
RNA 1: CACCCGUGCAAAAAUGCAGGGGUCUAAAACUGAGCGGAUAACCUCUCUAUGG
RNA 2: GGGAAUGGAUCCACAUCUACGAAUUCGUACCAUUAGAGAGGUUAUCCCGCUCACCGAGAUCGGAAGAGCACACGU
B25: target 1 insU 3' of 20,insG 3' of 4 (mixed)
RNA 1: CACCCGUGCAAAAAUGCAGGGGUCUAAAACUGAGCGGAUAACCUCUCUAUGG
RNA 2: GGGAAUGGAUCCACAUCUACGAAUUCGUACCAUUAGAGAGGUUAUCCGCGUCACCGAGAUCGGAAGAGCACACGU
B26: target 1 insG 3' of 14,insC 3' of 8 (mixed)
RNA 1: CACCCGUGCAAAAAUGCAGGGGUCUAAAACUGAGCGGAUAACCUCUCUAUGG
RNA 2: GGGAAUGGAUCCACAUCUACGAAUUCGUACCAUAGAGAGGGUUAUCCCGCUCACCGAGAUCGGAAGAGCACACGU
B27: target 1 insG 3' of 4,insG 3' of 2 (mixed)
RNA 1: CACCCGUGCAAAAAUGCAGGGGUCUAAAACUGAGCGGAUAACCUCUCUAUGG
RNA 2: GGGAAUGGAUCCACAUCUACGAAUUCGUACCAUAGAGAGGUUAUCCGCGUCGACCGAGAUCGGAAGAGCACACGU

A word on the Kd: it is the free concentration of one partner at which half of the binding sites on the other are occupied at equilibrium, for simple one-to-one binding. The low end stands for higher affinity, the high end for lower affinity.

This series has as its target T1, EsCas13d, nuclease-dead. Briefly: crRNA (strand 1, pre-loaded); Mg2+; 40 mM Tris-HCl pH 7.5, 150 mM NaCl, 6 mM MgCl2, 1 mM DTT, 0.1% Tween-20, 0.2 mg/ml BSA; 25 C; 10 min per concentration, then washed. The note with it: tags: His6-TwinStrep-SUMO cleaved; N-terminal SNAP kept (SNAP-Surface 488); label: 3' end held by stalled T7 RNA polymerase.
Consider B1, for which the Kd came to 32 ± 8 nM.
On to B2, for which the Kd was found to be 61 ± 6 nM.
Regarding B3, the Kd was 14.8 ± 0.8 nM.
Next, B4: 18.9 ± 0.7 nM; B5: 44 ± 7 nM.
As for B6, the figure is about 80 nM.
The molecule B7 displayed a Kd of 9.8 ± 0.4 nM.
With B8, the Kd stood at 60 ± 19 nM. Compared with the last molecule, the Kd is about 6.1-fold higher.
Next, B9: 49 ± 7 nM; B10: 19.7 ± 2 nM; B11: 10 ± 0.5 nM.
On to B12, for which the affinity, expressed as Kd, was 10.7 ± 0.9 nM.
On to B13, for which the Kd was 23.9 ± 1.8 nM. This Kd is about 2.2-fold higher than that of the molecule before.
As for B14, the figure is 22.7 ± 1.2 nM.
Turning to B15, the Kd is 11.6 ± 0.4 nM.
For the molecule B16, binding was put at a Kd of 5.41 ± 0.21 nM.
For the molecule B17, the affinity, expressed as Kd, was 42 ± 8 nM.
With B18, the Kd was 33.1 ± 1.9 nM.
For B19, binding was put at a Kd of 38.1 ± 2.5 nM.
As for B20, the figure is 52 ± 6 nM.
As to B21, the Kd came out at 15.6 ± 1.3 nM.
B22 had a dissociation constant Kd of 38 ± 4 nM.
In turn, B23 came in with a Kd of 64 ± 7 nM.
In turn, B24 showed a Kd of 19.1 ± 1 nM.
B25 showed a Kd of 10.4 ± 0.7 nM.
Molecule B26 displayed a Kd of 41 ± 5 nM.
Next, B27: 4.72 ± 0.29 nM.
